We go through one molecule from patent US20170128524A1 (published 2017).

The experiment addresses T1, Syntaxin 1a (mouse, UniProt O35526 1-288).
T1 construct: also called STX1a; STX 1a
As to the kind of experiment: Co-IP with anti-STX1a antibody from mouse cortical synaptosomes, Western blot. A general note: Immunoblotting shows a protein as a band on a membrane.

T1 sequence (O35526 whole entry): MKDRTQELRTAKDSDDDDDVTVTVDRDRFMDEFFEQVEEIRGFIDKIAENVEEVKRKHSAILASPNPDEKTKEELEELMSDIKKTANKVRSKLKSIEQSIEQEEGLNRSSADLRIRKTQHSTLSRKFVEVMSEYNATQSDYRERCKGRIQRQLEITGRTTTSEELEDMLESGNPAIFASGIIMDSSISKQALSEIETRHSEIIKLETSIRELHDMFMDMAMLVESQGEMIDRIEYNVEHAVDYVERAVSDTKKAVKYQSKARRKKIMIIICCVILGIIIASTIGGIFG

B1: c-Jun N-terminal Kinase isoform 1 (JNK1) (enzyme, mouse, UniProt Q91Y86 1-384, looked up)
chain: MSRSKRDNNFYSVEIGDSTFTVLKRYQNLKPIGSGAQGIVCAAYDAILERNVAIKKLSRPFQNQTHAKRAYRELVLMKCVNHKNIIGLLNVFTPQKSLEEFQDVYIVMELMDANLCQVIQMELDHERMSYLLYQMLCGIKHLHSAGIIHRDLKPSNIVVKSDCTLKILDFGLARTAGTSFMMTPYVVTRYYRAPEVILGMGYKENVDLWSVGCIMGEMVCHKILFPGRDYIDQWNKVIEQLGTPCPEFMKKLQPTVRTYVENRPKYAGYSFEKLFPDVLFPADSEHNKLKASQARDLLSKMLVIDASKRISVDEALQHPYINVWYDPSEAEAPPPKIPDKQLDEREHTIEEWKELIYKEVMDLEERTKNGVIRGQPSPLAQVQQ
notes: Lower 46 kDa band of the JNK signal in the non-immunoprecipitated control; also called lower band, 46 kDa
In the case of B1, the binding result is given as “no binding”.
